Values quoted from earlier work as cited in publication PMC5860782.

Target: clathrin light chain (Saccharomyces cerevisiae) (UniProt P17891)
Chain of UniProt P17891 (P17891 whole entry): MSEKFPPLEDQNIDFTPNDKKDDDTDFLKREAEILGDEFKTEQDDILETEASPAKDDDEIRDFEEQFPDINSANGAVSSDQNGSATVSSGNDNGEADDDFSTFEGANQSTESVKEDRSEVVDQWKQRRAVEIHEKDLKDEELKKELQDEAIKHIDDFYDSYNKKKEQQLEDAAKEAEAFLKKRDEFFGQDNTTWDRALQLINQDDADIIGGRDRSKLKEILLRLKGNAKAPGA

Substance: clathrin heavy chain (from UniProt P22137)
- Kd: 1 nM
